In the DeepSol protein solubility set:

Assay: soluble on expression in E. coli; label from the status in PepcDB or PDB records
With “MGSDKIHHHHHHMKAQEVPSTTFTGGETVLTFKGGVHPPELKEWSKDKPIERAPLPQKVFVFLSNHAGNPAKPVVSPGDEVKTGQVIGEPEGFISAYLHSPVTGRVLEIKKILHPILGKPIEAIVIERTSDDEWVHIETGDFERMSKEEILEIIKKAGIVGLGGAMFPTHVKLSPPPEKKVDTLIVNGAECEPVLTIDHRLMLERAEDILQGILIMMKVLGVQKAVVGVESNKMDAYHNLKKVFKGYPVDVALLRTKYPQGAEKQLIYAITGRMVPRGGLPMDVGVVVQNVGTCVAVKEAVVDGKPLVERGMTVSGDAVKNQKNLIVRIGTPVKDVIDYCGGIDENTERVILGGPMMGISITNLDIPVMKGTSGITAFLPKKSRPQKPCIRCSECVQVCPMNLQPYLLYLLSTKRKYDEAVENGLMDCIECGSCTYTCPSKIEHVRYIKLAKTVYRATRRGRR” the “soluble on expression in E. coli” value was “not soluble”.
For “MGSDKIHHHHHHMPINIRRATINDIICMQNANLHNLPENYMMKYYMYHILSWPEASFVATTTTLDCEDSDEQDENDKLELTLDGTNDGRTIKLDPTYLAPGEKLVGYVLVKMNDDPDQQNEPPNGHITSLSVMRTYRRMGIAENLMRQALFALREVHQAEYVSLHVRQSNRAALHLYRDTLAFEVLSIEKSYYQDGEDAYAMKKVLKLEELQISNFTHRRLKENEEKLEDDLESDLLEDIIKQGVNDIIV”, the “soluble on expression in E. coli” value was “not soluble”.
With “MGSSEVSIIPGLQKEEKAAVERRRLHVLKALKKLRIEADEAPVVAVLGSGGGLRAHIACLGVLSEMKEQGLLDAVTYLAGVSGSTWAISSLYTNDGDMEALEADLKHRFTRQEWDLAKSLQKTIQAARSENYSLTDFWAYMVISKQTRELPESHLSNMKKPVEEGTLPYPIFAAIDNDLQPSWQEARAPETWFEFTPHHAGFSALGAFVSITHFGSKFKKGRLVRTHPERDLTFLRGLWGSALGNTEVIREYIFDQLRNLTLKGLWRRAVANAKSIGHLIFARLLRLQESSQGEHPPPEDEGGEPEHTWLTEMLENWTRTSLEKQEQPHEDPERKGSLSNLMDFVKKTGICASKWEWGTTHNFLYKHGGIRDKIMSSRKHLHLVDAGLAINTPFPLVLPPTREVHLILSFDFSAGDPFETIRATTDYCRRHKIPFPQVEEAELDLWSKAPASCYILKGETGPVVMHFPLFNIDACGGDIEAWSDTYDTFKLADTYTLDVVVLLLALAKKNVRENKKKILRELMNVAGLYYPKDSARSCCLA” the “soluble on expression in E. coli” value was “soluble”.
For “SAKAVRIGAEGYKLKLDGAVQEIDGRSVVLVDVDSITPLMFGGSMKEKAKLLDAKFLRKYYEENKDFFFLSTREEKKMFVTLQLAREYAELVDDQFLRGFFEKALESAQKAF”, the “soluble on expression in E. coli” value was “soluble”.
In the case of “MQGEALKDFLFDKADDMKAVDIVTLDVKEKSSVTDYMIVCTGTSKRHVASIAEHVANEAKLSGLQPLGMNGENEGEWVVLDMGSVMLHVMQEAPRELYQLEKLWGLEHHHHHH”, the “soluble on expression in E. coli” value is reported as “not soluble”.
For “MMKEFTPAPDSASIVSVTDRVKPVALGMGVTSVHFLGDRAAFVGGEENVAFVDSQGEITTVAVHGGGILSTASDGKRLVMGGDDGKVVSLDAKGEVTLLATDPKRRWIDAVALHADGAFAWSAGKTATVKSGKTEEKSLEVPSTVGGLAFAPKGLRLAIAHYNGATLWFPNMAASAEFLPWAGSHHAVTFSPDNKFLVTAMHEPALHGWRLADNRHMRMTGYPGRVRSMSWSAGGKALATSGADTVILWPFGSKDGPMGKEPAMLAPLQARVSVVACHPKNDILAAGYSDGTVLMVRLEDGAEILVRRNGTPPVAALAWNAKGTLLAFADENGDGGLLELLEHHHHHH”, the “soluble on expression in E. coli” value was “soluble”.
For “GIHMGKIKRRAITEHEKRALRHYFFQLQNRSGQQDLIEWFREKFGKDISQPSVSQILSSKYSYLDNTVEKPWDVKRNRPPKYPLLEAALFEWQVQQGDDATLSGETIKRAAAILWHKIPEYQDQPVPNFSNGWLEGFRKRHILH”, the “soluble on expression in E. coli” value was “soluble”.
For “MAHHHHHHMIAAIKTPAFQERVRAAMSREPTPADAEAVMKRYEEVQADYFTNHYNAEAGGICSSASAGAESRGTGGAGGRAKSSQDASEALAQQVDDMNLQEASDAPKLDGVEIVEQLKNAVRVYKEKETVRLITELCLLIESQVTALPATVPALRHLYSNSVYGSSAMEHAQAASAQAGGGESVLPVAQPSPQVMSMMGMAMRTLNPRQRETLERVQRAMMNGSPPLPEDMQDMLLIQRQLGAFMQTMQRFGQMPSGRGCGSGGRGGCGGQGGQ”, the “soluble on expression in E. coli” value was “soluble”.
With “MSLTEILIVEDDDIIATLIERFLLQREYVVCAKVATGEDALYKAAEHLPDLVLMDINLAGKIDGITATKFITAIFHIPVIFLSGQDDETTLERATMAEPASFIIKPFNAKDLYSNIEIALHNDRILKRSKDYKGGKIRRIARAALSELDAYFILDKRGRIVFINPYGEHLLNVHRNDIILKPIGKYLTFYDTRQNTVFTDTFQDVIRESLVLGVRQHIAVKMSDNSFRHVVIQSTSIRDSENETIGMIVRMHMKTKSEEGHHHHHH” the “soluble on expression in E. coli” value was “soluble”.
In the case of “SLCGEPGCRHEQTAVKAGRSRNWAGSFAKTPGRLFGVGFIRLYQLTLSGFVGNSCRHIPTCSEYGYEAIARHGLWAGGWMALFRVARCGPGGTSGLDPVPEELDGSKRWWTPWRYWSRHR”, the “soluble on expression in E. coli” value is reported as “soluble”.
In the case of “MRGPVKIVATVGPSSSSASILAQMLSLGVDVARINASHGGVEQWNSMLESLRRAEEAVGKRVGVAVDLEGPRVRTGNSEPVKLEKGDLVTLGFMEGDVPVDARQFFETIDEGDIVLLDDGKIILQVESVEGFRVKARVLEGGVLGPRKGVVVRGKEPDLPPLSAKDRRALEFFADKGVSHVYVSFARSAEHVEKVRTVVRRLGLRQARIFAKIEGPSGVSRIGEIAEASDGVIIARGDLGMHYSLEELPEIQELIVWEARKRYKTVVLATEFLSSMIEKPVPTRSEVVDIYQAVLQTADALMLTGETAIGKYPVKSVQWMAKISSRAYKKLATSPPERPRPTSTPYKLALGLVELAESLDSPLVVYSKTGRFAERLASFKPLKTFYVGVPSREVERVVRHLWGAEPIVVGDYPYEAGLAKTYEKLRRENIIHGDETVVEAAWSSERGIYIIRVRNLEF”, the “soluble on expression in E. coli” value is reported as “soluble”.
With “MLRHSRHNAVFILDTAGIIMGISEGAQRSYGYTHKDVHGKYFDMLFTEESRKQQKPELELAKVLQYGTAADYNEFVHKDGRHIWTEGESLLITDVWGDSFIIKNVHSLDKEKEEQRNLQQQNEKLLRINNDLDTFVYTASHDLKNPVSNIESLVSIMQYELKHGADAEAVEPVMSRITEALNRFKTTLNELTEISRIDAPVDTDEMYVSFDSILQEVMYDVQDLVDSTEASIQSDFSAATMVRFSKKNVRSILFNLLSNALKYRSPERKPEIYIETKPAGEYILLSVRDNGIGIEPAQHKKVFQFFKRLHTHVQGTGVGMGIVKKIMDNTGGKITLESIPGKGSAFTVHFKQ” the “soluble on expression in E. coli” value was “not soluble”.
With “MGSDKIHHHHHHMTLKITKSDEVIEVKNLCVTIYSQPGLGKTSLAFTASRPLLLDFDKGAHRAVDRKDVVQVEDWRDVAGISAGDLAAYDTIVIDTVGKALDTLSADIIRANSKLSYGGALNQQGWGQLGVRFSAFLKLLRSFGKDVVLISHMDEKADGDAIKERLKISGGSKDLVLTDSDVIARISIYNRERHLIFSPTETSFGKDPANIGAMPIPEASAETYATCLSDIITQIKEGMNALSEEQVQRKAEIDWFATKLPEMTSAEEINGVLGRAKKAGKDIQKMVVARAKELGFDFDPEAREYVDPSAALADELDDEIPEFDDADEPESPAMAAE” the “soluble on expression in E. coli” value was “not soluble”.
In the case of “MVFNRVVQIGRVVFIASGKDQGKLAAIVNVIDGNRVQIDGPSSDVTRTVRNLKDLQLTKFVLKLRVGQRTKGVKAAFDAAKVTENFQKTQWAKKIAQRAIRAKLTDFERYKLMKAKQMRNRIVRVELAKLKKAQK”, the “soluble on expression in E. coli” value is reported as “not soluble”.
With “SPDEQLLKQVSELLQQGEHAQALNVIQTLSDELQSRGDVKLAKADCLLETKQFELAQELLATIPLEYQDNSYKSLIAKLELHQQAAESPELKRLEQELAANPDNFELACELAVQYNQVGRDEEALELLWNILKVNLGAQDGEVKKTFMDILSALGQGNAIASKYRRQLYSILY” the “soluble on expression in E. coli” value was “soluble”.
For “MNSNYKRYKMLVFDLDGTLLNNNHEIAFLTLEVLLALKEDFKIIIATGRRLSEVKNIRSQLKEISINENYLVTANGAEVFLQENLIFRYAMNYDLAKEILKINTDNVDVNLYTFDTWYSNADVKSPIMKHFIKDLGLNVIIGDLTKLNVDSVSKIVYYCDDLAILNKLDTEIKSKDFQDTRVFFSSKDLLEVTNINANKYNAIKNIAFLESIPLCDVLAFGDNNNDYEMLKNLGKGVLMKNANEFLKINLAKNEITRFSNNEDGVARFLIDFFKLNIKY”, the “soluble on expression in E. coli” value was “not soluble”.
With “MGSDKIHHHHHHMEKYSAESIKVLKGLEPVRMRPGMYIGSTGKRGLHHLVYEVVDNSVDEALAGYCDWIRVTLHEDGSVEVEDNGRGIPVDIHPEEGRSALEVVFTVLHAGGKFSKDSYKISGGLHGVGVSVVNALSEWLEVRVHRDGKIYRQRYERGKPVTPVEVIGETDKHGTIVRFKPDPLIFSETEFDPDILEHRLREIAFLVPGLKIEFEDRINGEKKTFKFDGGIVEYVKYLNRGKKALHDVIHIKRTEKVKTKNGEDEVIVEIAFQYTDSYSEDIVSFANTIKTVDGGTHVTAFKSTLTRLMNEYGKKHNFLKKDDSFQGEDVREGLTAVISVYVKNPEFEGQTKSKLGNEEVKEAVTKAMREELKKIFDANPELVKTILSKIMSTKQAREAAKRAREMVRRKNVLQNTTLPGKLADCSSTHREKTELFIVEGDSAGGSAKQARDREFQAVLPIRGKILNVEKSSLDRLLKNEQISDIIVAVGTGIGDDFDESKLRYGRIIIMTDADIDGAHIRTLLLTLFYRYMRPLIEQGRVYIALPPLYRIKAGREEFYVYSDQELAEYKEKLQGKRIEIQRYKGLGEMNPEQLWETTMNPETRKIIRVTIEDAEEADRLFEILMGNDPSSRREFIERHALKVKELDI” the “soluble on expression in E. coli” value was “not soluble”.
With “MYQLEKEPIVGAETFYVDGAANRETKLGKAGYVTNRGRQKVVTLTDTTNQKTELQAIYLALQDSGLEVNIVTDSQYALGIITQWIHNWKKRGWKTADKKPVKNVDLVNQIIEQLIKKEKVYLAWVPAHKGIGGNEQVDKLVSAGIRKVLF” the “soluble on expression in E. coli” value was “soluble”.
For “MANTITADEIREHFSQAMSAMYQQEVPQYGTLLELVADVNLAVLENNPKLHEQLANADELARLNVERHGAIRVGTAEELSTLRRIFAIMGMYPVSYYDLSQAGVPVHSTAFRPIDEASLSRNPFRMFTSLLRLELIENAALRQRAAEILSQRDIFTSRCRQLLDEYDEQGGFSAAQAEEFVRETLETFRWHRQATVDEETYRSLHREHRLIADVVCFPGCHINHLTPRTLDIDRVQAMMPECGITPKILIEGPPRREVPILLRQTSFKALEEQVLFVDEKQGTHTARFGEIEQRGVALTPKGRRLYDELLHKAGTGKDNFTHQLHLREVFNAFPDSEFLLRQQGLAWFRYRLTPSGEAHRQAIHPGDDPQPLIERGWVIAQPITYEDFLPVSAAGIFQSNLGDETLARSHGNASRDAFEQALGCAVRDEFSLYQEAEERSKRRCGLLLEHHHHHH”, the “soluble on expression in E. coli” value was “not soluble”.
In the case of “MVRIIVDHSLILLYSLSAFEESKYISSEEQMQISEYINVDDKIIQRWFEIRRAPTQESWEPEVILPEAIAIFEKEFTTNPNPCSHTLEELRMKTHVQVDSINKWFDERRCAAEQNIKSDSEGSEASFSLCSSWGDTDKELKVDLKMA”, the “soluble on expression in E. coli” value is reported as “not soluble”.
In the case of “MGSDKIHHHHHHMSAQTRPAPGRHTIRVSEDDCGLGQFGGGAWLSDAALWPSDPSTGRPMTPIVMLTDLFLPSVWLADDMAVTVFAALGRESDAYNRTALRTFTIHQQSELEKIDAGHSKVVLHRRAAREMVRETVMLPRHFVGLQPFDERDAEEEAEDADNGAGMSKQLGRPYWLQDPIHAHPRHYFLSQFVESDLRQQDPAYDGLFADGTGYLFAEQRAKVLREGDTAGYFFIQFT”, the “soluble on expression in E. coli” value is reported as “not soluble”.
